# According to patent US20230002480A1:
# Columns and labels:
# Assay in all cases: cell-based or functional assay
# [1] = molecular target: HIV-1 Env of pseudovirus Q23.17 (HIV-1)
# [2] = molecular target: HIV-1 Env pseudovirus 6952.v1.c20 (HIV-1)
# [3] = molecular target: HIV-1 Env of pseudovirus HIV-0013095-2.11 (HIV-1)
# [4] = molecular target: HIV-1 Env pseudovirus T257-31 (HIV-1)
# [5] = molecular target: HIV-1 Env of pseudovirus Q259.d2.17 (HIV-1)
# [6] = molecular target: HIV-1 Env pseudovirus X1632_S2_B10 (HIV-1)
# [7] = molecular target: HIV-1 Env of pseudovirus REJO4541.67 (HIV-1)
# [8] = molecular target: HIV-1 Env of pseudovirus CNE5 (clade CRF01_AE) (HIV-1)
# [9] = molecular target: HIV-1 Env of pseudovirus 3103.v3.c10 (clade ACD) (HIV-1)
# [10] = molecular target: HIV-1 Env of pseudovirus 231966.c02 (clade D) (HIV-1)
# [11] = molecular target: HIV-1 Env of pseudovirus 6811.v7.c18 (clade CD) (HIV-1)
# [12] = molecular target: HIV-1 Env of pseudovirus 6952.v1.c20 (clade CD) (HIV-1)
# [13] = molecular target: HIV-1 Env of pseudovirus 0815.v3.c3 (clade ACD) (HIV-1)
# [14] = molecular target: HIV-1 Env of pseudovirus 3016.v5.c45 (clade D) (HIV-1)
# [15] = molecular target: HIV-1 Env of pseudovirus 6041.v3.c23 (clade AC) (HIV-1)
# [16] = molecular target: HIV-1 Env of pseudovirus X1632_S2_B10 (clade G) (HIV-1)
# [17] = molecular target: HIV-1 Env of pseudovirus 89-F1_2_25 (clade CD) (HIV-1)
# [18] = molecular target: HIV-1 Env of pseudovirus X2131_C1_B5 (clade G) (HIV-1)
# [19] = molecular target: HIV-1 Env of pseudovirus 6540.v4.c1 (clade AC) (HIV-1)
# [20] = molecular target: HIV-1 Env of pseudovirus 231965.c01 (clade D) (HIV-1)
# [21] = molecular target: HIV-1 Env of pseudovirus 3817.v2.c59 (clade CD) (HIV-1)
# [22] = molecular target: HIV-1 Env of pseudovirus 3301.v1.c24 (clade AC) (HIV-1)
# [23] = molecular target: HIV-1 Env of pseudovirus A07412M1.vrc12 (clade D) (HIV-1)
# [24] = molecular target: HIV-1 Env of pseudovirus X1254_c3 (clade G) (HIV-1)
# [25] = molecular target: HIV-1 Env of pseudovirus P1981_C5_3 (clade G) (HIV-1)
# [26] = molecular target: HIV-1 Env of pseudovirus 6480.v4.c25 (clade CD) (HIV-1)
# [27] = molecular target: HIV-1 Env of pseudovirus 6545.v4.c1 (clade AC) (HIV-1)
# [28] = molecular target: HIV-1 Env of pseudovirus 3415.v1.c1 (HIV-1)
# [29] = molecular target: HIV-1 Env of pseudovirus SC422661.8 (clade B) (HIV-1)
# [30] = molecular target: HIV-1 Env of pseudovirus C3347.c11 (HIV-1)
# [31] = molecular target: HIV-1 Env of pseudovirus ZM53M.PB12 (clade C) (HIV-1)
# [32] = molecular target: HIV-1 Env of pseudovirus 249M B10 (clade C (T/F)) (HIV-1)
# [33] = molecular target: HIV-1 Env of pseudovirus R1166.c01 (HIV-1)
# [34] = molecular target: HIV-1 Env of pseudovirus ZM197M.PB7 (clade C) (HIV-1)
substance,measurement,setting,value
N49P9 (antibody),IC50,[1],0.032 µg/mL
same,IC80,[1],0.091 µg/mL
same,MPI,[1],100
same,IC50,[2],0.095 µg/mL
same,IC80,[2],0.258 µg/mL
same,MPI,[2],100
same,IC50,[3],0.179 µg/mL
same,IC80,[3],0.635 µg/mL
same,MPI,[3],100
same,IC50,[4],0.216 µg/mL
same,IC80,[4],0.821 µg/mL
same,MPI,[4],100
same,IC50,[5],0.807 µg/mL
same,IC80,[5],> 50 µg/mL
same,MPI,[5],74
same,IC50,[6],46.7 µg/mL
same,IC80,[6],> 50 µg/mL
same,MPI,[6],51
same,IC50,[7],0.071 µg/mL
same,IC80,[7],0.291 µg/mL
same,MPI,[7],100
10E8 (antibody),"IC50, titer in TZM.bl cells",[8],1.41 µg/mL
same,"IC80, titer in TZM.bl cells",[8],9.64 µg/mL
same,"IC50, titer in TZM.bl cells",[9],> 10 µg/mL
same,"IC80, titer in TZM.bl cells",[9],> 10 µg/mL
same,"IC50, titer in TZM.bl cells",[10],0.191 µg/mL
same,"IC80, titer in TZM.bl cells",[10],3.13 µg/mL
same,"IC50, titer in TZM.bl cells",[1],1.64 µg/mL
same,"IC80, titer in TZM.bl cells",[1],7.04 µg/mL
same,"IC50, titer in TZM.bl cells",[11],7.54 µg/mL
same,"IC80, titer in TZM.bl cells",[11],> 10 µg/mL
same,"IC50, titer in TZM.bl cells",[12],0.343 µg/mL
same,"IC80, titer in TZM.bl cells",[12],1.91 µg/mL
same,"IC50, titer in TZM.bl cells",[13],0.332 µg/mL
same,"IC80, titer in TZM.bl cells",[13],2.87 µg/mL
same,"IC50, titer in TZM.bl cells",[14],0.476 µg/mL
same,"IC80, titer in TZM.bl cells",[14],4.39 µg/mL
same,"IC50, titer in TZM.bl cells",[15],2.33 µg/mL
same,"IC80, titer in TZM.bl cells",[15],9.77 µg/mL
same,"IC50, titer in TZM.bl cells",[3],0.031 µg/mL
same,"IC80, titer in TZM.bl cells",[3],0.213 µg/mL
same,"IC50, titer in TZM.bl cells",[16],1.98 µg/mL
same,"IC80, titer in TZM.bl cells",[16],9.68 µg/mL
same,"IC50, titer in TZM.bl cells",[17],1.11 µg/mL
same,"IC80, titer in TZM.bl cells",[17],10 µg/mL
same,"IC50, titer in TZM.bl cells",[5],4.59 µg/mL
same,"IC80, titer in TZM.bl cells",[5],> 10 µg/mL
same,"IC50, titer in TZM.bl cells",[18],0.189 µg/mL
same,"IC80, titer in TZM.bl cells",[18],0.974 µg/mL
same,"IC50, titer in TZM.bl cells",[19],1.9 µg/mL
same,"IC80, titer in TZM.bl cells",[19],10 µg/mL
same,"IC50, titer in TZM.bl cells",[20],> 10 µg/mL
same,"IC80, titer in TZM.bl cells",[20],> 10 µg/mL
same,"IC50, titer in TZM.bl cells",[21],1.18 µg/mL
same,"IC80, titer in TZM.bl cells",[21],5.98 µg/mL
same,"IC50, titer in TZM.bl cells",[22],4.63 µg/mL
same,"IC80, titer in TZM.bl cells",[22],> 10 µg/mL
same,"IC50, titer in TZM.bl cells",[23],0.576 µg/mL
same,"IC80, titer in TZM.bl cells",[23],6.05 µg/mL
same,"IC50, titer in TZM.bl cells",[24],4.75 µg/mL
same,"IC80, titer in TZM.bl cells",[24],> 10 µg/mL
same,"IC50, titer in TZM.bl cells",[25],0.057 µg/mL
same,"IC80, titer in TZM.bl cells",[25],0.285 µg/mL
same,"IC50, titer in TZM.bl cells",[26],8.08 µg/mL
same,"IC80, titer in TZM.bl cells",[26],> 10 µg/mL
same,"IC50, titer in TZM.bl cells",[7],0.203 µg/mL
same,"IC80, titer in TZM.bl cells",[7],1.69 µg/mL
same,"IC50, titer in TZM.bl cells",[27],1.78 µg/mL
same,"IC80, titer in TZM.bl cells",[27],8.23 µg/mL
PG9 (antibody),"IC50, titer in TZM.bl cells",[8],0.018 µg/mL
same,"IC80, titer in TZM.bl cells",[8],0.051 µg/mL
same,"IC50, titer in TZM.bl cells",[9],28 µg/mL
same,"IC80, titer in TZM.bl cells",[9],> 50 µg/mL
same,"IC50, titer in TZM.bl cells",[10],0.075 µg/mL
same,"IC80, titer in TZM.bl cells",[10],0.257 µg/mL
same,"IC50, titer in TZM.bl cells",[1],0.027 µg/mL
same,"IC80, titer in TZM.bl cells",[1],0.082 µg/mL
same,"IC50, titer in TZM.bl cells",[11],> 50 µg/mL
same,"IC80, titer in TZM.bl cells",[11],> 50 µg/mL
same,"IC50, titer in TZM.bl cells",[12],> 50 µg/mL
same,"IC80, titer in TZM.bl cells",[12],> 50 µg/mL
same,"IC50, titer in TZM.bl cells",[13],> 50 µg/mL
same,"IC80, titer in TZM.bl cells",[13],> 50 µg/mL
same,"IC50, titer in TZM.bl cells",[14],2.46 µg/mL
same,"IC80, titer in TZM.bl cells",[14],> 50 µg/mL
same,"IC50, titer in TZM.bl cells",[15],0.244 µg/mL
same,"IC80, titer in TZM.bl cells",[15],3.64 µg/mL
same,"IC50, titer in TZM.bl cells",[3],0.01 µg/mL
same,"IC80, titer in TZM.bl cells",[3],0.03 µg/mL
same,"IC50, titer in TZM.bl cells",[16],0.107 µg/mL
same,"IC80, titer in TZM.bl cells",[16],0.934 µg/mL
same,"IC50, titer in TZM.bl cells",[17],0.668 µg/mL
same,"IC80, titer in TZM.bl cells",[17],10.1 µg/mL
same,"IC50, titer in TZM.bl cells",[5],0.029 µg/mL
same,"IC80, titer in TZM.bl cells",[5],1.38 µg/mL
same,"IC50, titer in TZM.bl cells",[18],0.084 µg/mL
same,"IC80, titer in TZM.bl cells",[18],0.286 µg/mL
same,"IC50, titer in TZM.bl cells",[19],0.07 µg/mL
same,"IC80, titer in TZM.bl cells",[19],0.253 µg/mL
same,"IC50, titer in TZM.bl cells",[20],1.28 µg/mL
same,"IC80, titer in TZM.bl cells",[20],48 µg/mL
same,"IC50, titer in TZM.bl cells",[21],0.02 µg/mL
same,"IC80, titer in TZM.bl cells",[21],0.062 µg/mL
same,"IC50, titer in TZM.bl cells",[22],0.216 µg/mL
same,"IC80, titer in TZM.bl cells",[22],0.756 µg/mL
same,"IC50, titer in TZM.bl cells",[23],0.697 µg/mL
same,"IC80, titer in TZM.bl cells",[23],7.96 µg/mL
same,"IC50, titer in TZM.bl cells",[24],0.065 µg/mL
same,"IC80, titer in TZM.bl cells",[24],0.304 µg/mL
same,"IC50, titer in TZM.bl cells",[25],0.258 µg/mL
same,"IC80, titer in TZM.bl cells",[25],2.51 µg/mL
same,"IC50, titer in TZM.bl cells",[26],> 50 µg/mL
same,"IC80, titer in TZM.bl cells",[26],> 50 µg/mL
same,"IC50, titer in TZM.bl cells",[7],0.012 µg/mL
same,"IC80, titer in TZM.bl cells",[7],0.163 µg/mL
same,"IC50, titer in TZM.bl cells",[27],0.099 µg/mL
same,"IC80, titer in TZM.bl cells",[27],0.351 µg/mL
N49P11 (antibody),IC50,[28],1.86 µg/mL
same,IC80,[28],10.3 µg/mL
same,MPI,[28],100
same,IC50,[29],0.729 µg/mL
same,IC80,[29],3.49 µg/mL
same,MPI,[29],100
same,IC50,[30],0.055 µg/mL
same,IC80,[30],0.192 µg/mL
same,MPI,[30],100
same,IC50,[31],1.05 µg/mL
same,IC80,[31],6.53 µg/mL
same,MPI,[31],100
same,IC50,[32],3.54 µg/mL
same,IC80,[32],12.9 µg/mL
same,MPI,[32],100
same,IC50,[33],0.06 µg/mL
same,IC80,[33],0.336 µg/mL
same,MPI,[33],100
same,IC50,[34],0.303 µg/mL
same,IC80,[34],1.59 µg/mL
same,MPI,[34],100
